Results reported in patent publication US20240376151A1, “STAPLED PEPTIDES AND METHODS THEREOF” (FOG PHARMACEUTICALS, INC., priority 2022, published 2024).
Numbered stars: 1 amine (or outer) side, 2 acyl side, 3 side chain; on linkers, the order of the positions; unused ones are H or OH. Bridge positions count the residues as written; N and C are the ends. Ends that are not written are not given here. Phenylene(1,4-NHCOCH2)2 = O=C(C[*:1])Nc1ccc(NC(=O)C[*:2])cc1

Tests used:
WWP2^HECT = molecular target: T1, WWP2^HECT (Homo sapiens, UniProt O00308); experiment: Naive Library Presenter Screening (phage, NGS), WWP2^HECT; format: binding; settings: for interaction data at Target Concentration 10: WWP2 target concentration 10 nM; for interaction data at Target Concentration 30: WWP2 target concentration 30 nM; for interaction data at Target Concentration 100: WWP2 target concentration 100 nM; for interaction data at Target Concentration 300: WWP2 target concentration 300 nM; for interaction data at Target Concentration 1000: WWP2 target concentration 1000 nM
T1 construct: GST-TEV (N, cleaved yes); made in house; host or cells: Escherichia coli BL21 (DE3)
T1 sequence (O00308 492-865): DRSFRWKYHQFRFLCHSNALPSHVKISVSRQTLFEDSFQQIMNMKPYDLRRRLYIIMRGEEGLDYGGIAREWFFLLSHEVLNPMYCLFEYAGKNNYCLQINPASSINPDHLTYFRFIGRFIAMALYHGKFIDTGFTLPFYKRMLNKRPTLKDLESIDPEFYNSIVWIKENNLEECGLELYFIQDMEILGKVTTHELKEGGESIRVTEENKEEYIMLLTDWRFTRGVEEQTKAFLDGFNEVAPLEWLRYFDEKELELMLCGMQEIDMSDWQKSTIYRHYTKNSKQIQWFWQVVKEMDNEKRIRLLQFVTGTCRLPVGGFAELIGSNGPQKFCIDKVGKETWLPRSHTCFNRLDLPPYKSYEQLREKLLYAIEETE

CDK2 = CDK2 (Homo sapiens, UniProt P24941); experiment: Phage Library Screening with NGS, CDK2; format: binding; design: Full length CDK2 (residues 1-298) with an N-terminal GST-3C-6×his-TEV tag; GST-3C-6×his-TEV (N, cleaved yes); made in house; host or cells: Sf9 (Bac-to-Bac baculovirus); settings: for phage screen counts, Target Concentration 10: CDK2, target concentration 10; for phage screen counts, Target Concentration 30: CDK2, target concentration 30; for phage screen counts, Target Concentration 100: CDK2, target concentration 100; for phage screen counts, Target Concentration 300: CDK2, target concentration 300
[1] = CDK2, target concentration 1000, first column
[2] = CDK2, target concentration 1000, second column

| Sequence | interaction data at Target Concentration 10 (WWP2^HECT) | interaction data at Target Concentration 30 (WWP2^HECT) | interaction data at Target Concentration 100 (WWP2^HECT) | interaction data at Target Concentration 300 (WWP2^HECT) | interaction data at Target Concentration 1000 (WWP2^HECT; second column) | interaction data at Target Concentration 1000 (WWP2^HECT; first column) | phage screen counts, Target Concentration 10 (CDK2) | phage screen counts, Target Concentration 30 (CDK2) | phage screen counts, Target Concentration 100 (CDK2) | phage screen counts, Target Concentration 300 (CDK2) | phage screen counts, Target Concentration 1000 (CDK2; [1]) | phage screen counts, Target Concentration 1000 (CDK2; [2]) |
| --- | --- | --- | --- | --- | --- | --- | --- | --- | --- | --- | --- | --- |
| DPARVNCHAAADTCFFF (linker 7-14 via Phenylene(1,4-NHCOCH2)2) | 6 | 83 | 76 | 103 | 123 | – | – | – | – | – | – | – |
| DPATWDCNVAAHRCWFL (linker 7-14 via Phenylene(1,4-NHCOCH2)2 (inferred); not fully specified (C-terminus)) | 1 | 0 | 12 | 60 | 75 | 40 | – | – | – | – | – | – |
| DPALWHCLAAAETCAMF (linker 7-14 via Phenylene(1,4-NHCOCH2)2; not fully specified (C-terminus)) | 4 | 38 | 24 | 49 | 76 | 47 | – | – | – | – | – | – |
| DPAVWECRWAAFQCWLD (linker 7-14 via Phenylene(1,4-NHCOCH2)2 (inferred); not fully specified (C-terminus)) | 0 | 0 | 88 | 86 | 107 | 97 | – | – | – | – | – | – |
| DPATWDCQQAAHHCWVL (linker 7-14 via Phenylene(1,4-NHCOCH2)2 (inferred); not fully specified (C-terminus)) | 0 | 0 | 2 | 23 | 66 | 35 | – | – | – | – | – | – |
| DPAMWSCRYAAWECWVL (DPAMWSCRYAAWECWVL-NH2; linker 7-14 via Phenylene(1,4-NHCOCH2)2; N-terminus assumed; SMILES CSCC[C@H](NC(=O)[C@H](C)NC(=O)[C@@H]1CCCN1C(=O)[C@@H](N)CC(=O)O)C(=O)N[C@@H](Cc1c[nH]c2ccccc12)C(=O)N[C@@H](CO)C(=O)N[C@H]1CSCC(=O)Nc2ccc(cc2)NC(=O)CSC[C@@H](C(=O)N[C@@H](Cc2c[nH]c3ccccc23)C(=O)N[C@H](C(=O)N[C@@H](CC(C)C)C(N)=O)C(C)C)NC(=O)[C@H](CCC(=O)O)NC(=O)[C@H](Cc2c[nH]c3ccccc23)NC(=O)[C@H](C)NC(=O)[C@H](C)NC(=O)[C@H](Cc2ccc(O)cc2)NC(=O)[C@H](CCCNC(=N)N)NC1=O) | 0 | 0 | 0 | 8 | 28 | 7 | – | – | – | – | – | – |
| DPAQDTCRAAADTCAFF (DPAQDTCRAAADTCAFF-NH2; linker 7-14 via Phenylene(1,4-NHCOCH2)2; N-terminus assumed; SMILES C[C@@H]1NC(=O)[C@H](C)NC(=O)[C@H](CCCNC(=N)N)NC(=O)[C@@H](NC(=O)[C@@H](NC(=O)[C@H](CC(=O)O)NC(=O)[C@H](CCC(N)=O)NC(=O)[C@H](C)NC(=O)[C@@H]2CCCN2C(=O)[C@@H](N)CC(=O)O)[C@@H](C)O)CSCC(=O)Nc2ccc(cc2)NC(=O)CSC[C@@H](C(=O)N[C@@H](C)C(=O)N[C@@H](Cc2ccccc2)C(=O)N[C@@H](Cc2ccccc2)C(N)=O)NC(=O)[C@H]([C@@H](C)O)NC(=O)[C@H](CC(=O)O)NC(=O)[C@H](C)NC1=O) | 8 | 159 | 267 | 241 | 373 | 232 | – | – | – | – | – | – |
| DPAMWDCRYAALDCYMT (DPAMWDCRYAALDCYMT-NH2; linker 7-14 via Phenylene(1,4-NHCOCH2)2; N-terminus assumed; SMILES CSCC[C@H](NC(=O)[C@H](C)NC(=O)[C@@H]1CCCN1C(=O)[C@@H](N)CC(=O)O)C(=O)N[C@@H](Cc1c[nH]c2ccccc12)C(=O)N[C@@H](CC(=O)O)C(=O)N[C@H]1CSCC(=O)Nc2ccc(cc2)NC(=O)CSC[C@@H](C(=O)N[C@@H](Cc2ccc(O)cc2)C(=O)N[C@@H](CCSC)C(=O)N[C@H](C(N)=O)[C@@H](C)O)NC(=O)[C@H](CC(=O)O)NC(=O)[C@H](CC(C)C)NC(=O)[C@H](C)NC(=O)[C@H](C)NC(=O)[C@H](Cc2ccc(O)cc2)NC(=O)[C@H](CCCNC(=N)N)NC1=O) | 0 | 0 | 6 | 23 | 24 | 62 | – | – | – | – | – | – |
| DPAWWVCAIAAMDCHEQ (linker 7-14 via Phenylene(1,4-NHCOCH2)2 (inferred)) | – | – | – | – | – | – | 0 | 0 | 0 | 139 | 216 | 422 |
| FECLDAFFSC (linker 3-10 via Phenylene(1,4-NHCOCH2)2 (inferred); not fully specified (N-terminus, C-terminus)) | – | – | – | – | – | – | 0 | 0 | 0 | 49 | 982 | 405 |
| DPAWWHCVIAALDCETQ (linker 7-14 via Phenylene(1,4-NHCOCH2)2 (inferred)) | – | – | – | – | – | – | 0 | 15 | 5 | 93 | 119 | 141 |
| DPAWWRCSIAAVDCEMQ (linker 7-14 via Phenylene(1,4-NHCOCH2)2 (inferred)) | – | – | – | – | – | – | 0 | 0 | 0 | 93 | 238 | 217 |
| DPAWWTCIIAALECEEQ (linker 7-14 via Phenylene(1,4-NHCOCH2)2 (inferred)) | – | – | – | – | – | – | 0 | 0 | 51 | 193 | 195 | 102 |
| DPAWYECVVAAIECHAY (linker 7-14 via Phenylene(1,4-NHCOCH2)2 (inferred)) | – | – | – | – | – | – | 0 | 12 | 0 | 286 | 411 | 473 |
| DPAWWVCAVAAIECQEY (linker 7-14 via Phenylene(1,4-NHCOCH2)2 (inferred)) | – | – | – | – | – | – | 3 | 47 | 258 | 1258 | 822 | 819 |
| PCMDAFFSCVW (linker 2-9 via Phenylene(1,4-NHCOCH2)2 (inferred)) | – | – | – | – | – | – | 0 | 0 | 1 | 0 | 39 | 8 |
| DPAWWRCSVAAIDCHWN (linker 7-14 via Phenylene(1,4-NHCOCH2)2 (inferred)) | – | – | – | – | – | – | 0 | 10 | 3 | 93 | 65 | 230 |
| DPAWWVCSIAAIECESS | – | – | – | – | – | – | 0 | 0 | 10 | 85 | 65 | 77 |
| PCLEAFFSCVY (linker 2-9 via Phenylene(1,4-NHCOCH2)2 (inferred)) | – | – | – | – | – | – | 0 | 0 | 0 | 61 | 314 | 257 |
| DPAWWTCSVAAIQCWDS (linker 7-14 via Phenylene(1,4-NHCOCH2)2 (inferred)) | – | – | – | – | – | – | 0 | 0 | 10 | 69 | 119 | 243 |
| DPAWWHCSIAALECHTT (linker 7-14 via Phenylene(1,4-NHCOCH2)2 (inferred)) | – | – | – | – | – | – | 0 | 18 | 25 | 216 | 195 | 358 |
